# Experiment: label from the status in PepcDB records
row,Sequence,protein production
1,MQTVQALLTAAKVDGAKSPYDTIHIKVLYPAKNTDSNLEKSWGMLPIDTAQAPLPVMIFFNGFNCDAQKYQWLGIELAQTGLVVVMFNWVGESLPGLVSFTPGFEIEKRKREFYGTAPTASALPAILTTLAQLQREGILAGTLDLEKIILGGHSEGGRVAMENANPNFFPQVVASFAYGSHTAGAVMLGYKPNTILPLPDTLPRLVIGGTHDGVIASSSSHFGLNTKDATTPVIRTFQEAIMGGHENSYLLILRGANHFSIVDIVDSTLALPFKDIPATQPQEHFRLLLATIIHLFIDAHVRHQPEAFQKLEQL,failed
2,MQTVRGWLTLPLALLIVLTGCMAVLSALVIEVQAGATSWIIGESHWSKAQQESVYWLERYLGSADPADLQAACRALEVPLGDRAARLAVDASPIDWAEVYAGLAAGRNAREDMPQMVRLYRYGQRLPYLGSAIALWKHTDGDILHLSLLADRAASAQATGTPDARALQSLRAELHLLDGRMRRDAAQFLTLLTRCARMLHDVMVTCSLATLLLVLSTCVLAIRRTRDYLMSHEGRFRTAFQHAALGMVKFDLSGRVLDANASLANILQYPPEALQACTLAEVMHPDDIVLDSRGLIDWPRLMQAGELRFLRSDGGVLWGRWSASLVEPGPQEPSLVLAVIEDVSQAHELADEVAYHARHDALTGLINRREIERRLQRLIDPPQSPQLCHALCFVDLDHFKLVNDTFGHAVGDKFLCHFADVITMQLRPGDWLGRLGGDEFAILLANTDLAHAHTLLERMHGVLGQPWSHQGGRPLTPSCSFGVVEIRQGADDVNLLMTAADLACHAAKEEGRNRIRSFGETDLAMARRRHDGGWISAVQQAIAEDRLLLYAQKIQVLSDPGRVQYEVLVRMRTRDGRVLSPGEFLPAVERYGLGRMVDAHVLETLCAQLSANPAHVASLDLCHVNLSAQSIAQRDFLDFVCALFERYPALVAKLCLEITETAVIGDLEHAQRFVQSVRARGCHVALDDFGSGLASFGYLKQFTVDVLKIDCGFVRNYAHDAVDRATVHSIAQVGLALGIEVVAEGVESEADIAGLREAGVGQVQGFSLHRPCPLDDLLHVSLPSLAAS,failed
3,MQVKENKQLCLISLGCSKNLVDSEVMLGKLYNYTLTNDAKSADVILINTCGFIESAKQESIQTILNAAKDKKEGAILIASGCLSERYKDEIKELIPEVDIFTGVGDYDKIDIMIAKKQNQFSEQVFLSEHYNARIITGSSVHAYVKISEGCNQKCSFCAIPSFKGKLQSRELDSILKEVENLALKGYTDMTFIAQDSSSFLYDKGQKDGLIQLIRAIDKQQALKSARILYLYPSSTTLELIGAIESSPIFQNYFDMPIQHISDSMLKKMRRNSSQAHHLKLLDAMKQVKESFIRSTIIVGHPEENESEFEELSAFLDEFQFDRLNIFAFSAEENTHAYSLEKVPKKTINARIKALNKIALKHQNHSFKALLNKPIKALVENKEGEYFYKARDLRWAPEVDGEILINDSELTTPLKPGHYTIAPSEFKDNILLAKVLSPF,failed
4,MQVKTEEKSVNNKKLIPFWVIERALEGDIQAINKILKHYEGYIAKLSVRKMYDEYGCVHYCVDETLRRRLETKLIKTIIGFKIVRLEHHHHHH,not failed
5,MQVQVSGKHVDVGEALRARVSDEIALSIGKYFDRGGAAEVVVSKEGYAFRVDCSVKLASGQQLISHGSGGDAHAAFDAALAKIDTRIRRYKRRLKSHSAAATAKQVENAAMFVLRAPESDDVDEDWDIEDDHPTGAPAAMVIAETQAAMKTMTVSMAVMELDLTAYPAIVFRNAAHGGISVVYRRPDGNIGWIDPERTKSNGHGSTAS,failed
6,MQVTFHPRACRFLKTRKAEKPNNEPLYASTSNRETIGDTGMSNPWIAIGALAVVALAIPLTMMAVSSLLRPSVPEQGKRTTYESGEVPTGSSRQIKFNIQYYMVALLFVVFDIETVFIFPWTVIYSDAAAELGMTTALLPMVVFITILAIGLGWAWRNGAVQWVRSPRATKGADTYE,failed
7,MQYANAYQAYQHNRVSVESPAKLIEMLYEGILRFSSQAKRCIENEDIEKKIYYINRVTDIFTELLNILDYEKGGEVAVYLTGLYTHQIKVLTQANVENDASKIDLVLNVARGLLEAWREIHSDELA,failed
8,MQYAYPLLAIFIWAGNTVINKLAVGAIFPAEIGFYRWLLAGLLFTPFMLKPVIKHWPEVRPNLWRIAILGVLGMAVYQSLAYFAASLTSATNMGIILSLMPLMSLAMAIAALGQRLTAGALVGAVLSFAGVLVVVSSGSLAALLQHGVNLGDAMMLVATLAYAIYSTLLKKWQLRLPPLVLLYLQVLVAVVVLLPLFLASPKVGPTLQNIPLVLYACLLASMLAPLAWMQAVVRLGPSRTTLFFNLLPLITALIAAVVLHEQLAWFHLVGGLLTLGGVILSERWTTVLGPLAGKPASAGQR,failed
9,MQYGAIVVTFNRKQLLIESITALLNQTVPPAKIIIIDNHSTDGTKAELQTADILANPSVDYRYLTKNIGGAGGFARGMQIAAADPNLDWASMSDDDAIFEPDYFEKLIAYQQDHPNRQILTGSVYIEDGRLQADQRNRFTNWSTFQAQAVPEREYRGNFEFDQYTFCGVFMSVAVIKQVGVADAGYFIWWDDCEYAVRTAKLSRPVNVSAAKLIHKTALPSLDFKSKFVPDWRLYYGQRNRLITIKRWRANSLVSLGWLLGFYARLAIQLCGPFYRGYRKMVIRVYLEALRDASREREGLNPNFMPGQKFLEHHHHHH,not failed
10,MQYLIVKYSHQIFVTITILVFNIRFFLLWKNPEKPLVGFWKALPHLNDTMLLFTGLWLMKITHFSPFNAPWLGTKILLLFAYIALGMVMMRARPRSTKFYTVYLLAMCCIACIVYLAKTKVLPF,failed
11,MQYPPRLGFGTWQAPPEAVQTAVETALMTGYRHIDCAYVYQNEEAIGRAFGKIFKDASSGIKREDVWITSKLWNYNHRPELVREQCKKTMSDLQVDYLDLFLVHWPLAFVRNDVGDLFPKDAEGRAMLEKVPLADTWRAMEQLVEEGLVKHIGVSNYTVPLLADLLNYAKIKPLVNQIEIHPWHPNDATVKFCLDNGIGVTAYSPMGGSYADPRDPSGTQKNVILECKTLKAIADAKGTSPHCVALAWHVKKWNTSMYSVIPKSQTPARIEANFKCTEVQLSDDDMDAINNIHLNKRIRFCDPAIFWKVPLFD,not failed
12,MQYVMSIIGILVVLGLCFALSNNKSKINFRAIAIMIGFQILIGWFMFGTKIGQQIIIFIGKVFNKLIKLGTTGVDFLFNGIQRDFVFFLNVLLIIVFFSALLSIFSYLGVLPFIVRVVGGAISKITGLPRVESFHAVNSVFFGSSEALIVIKNDLQHFNKNRMFIICCSAMSSVSASVTASYVMMLDAKYVLAALPLNLFSSLIVCSLLTPVDTKKEDEVIQKFDRTLFGDSFIGAMINGALDGLKVAGIVAALMIAFIGVMEVVNYVISAASGAMGHAVTLQQIFGYVLAPFAFLMGIPAQDIIPAGGIMGTKIVLNEFVAILDLKGVAATLSPRTVGIVTVFLISFASISQIGAIVGTIRALSEKQGSVVSKFGWKMLFASTLASILSATIAGLFI,failed
13,MRADALKRREHIITTTCNLYRTHHHDSLTMENIAEQAGVGVATLYRNFPDRFTLDMACAQYLFNVVISLQLQAISTFPTDPEGVWTSFNQLLFDRGLGSLVPALAPESLDDLPDEVSALRRTTEKNTTTLINLAKQHGLVHHDIAPGTYIVGLITISRPPITALATISENSHKALLGLYLSGLKHGMMANIGEHDGKS,not failed
14,MRADTRDFRALFLGDAPLLDTRAPVEFAKGAFPGAVNLPLMSDAERHKVGLCYKQQGQDAAIALGHRLVSGAVKAERVAAWAAFAQAHPEGYLYCFRGGLRSQISQAWLREEAGIAYPRVIGGYKAMRGFLLETIEQAIAEC,failed
15,MRAFLRVVETGNFTRASASLNMPKATVTNLIQGLEAHLRTKLLNRTTRRVLVTPDGALYYERAARLLSDLDELDGSLSTAQSLPKGRLRVETASAFANLVIIPALPEFHKKYPDIQIDLGVSDRTIDYLAENVDCAIRAGTLTDQSLIARRITEMKFVACASRDFLERHPVPQHPSDLEKNCYVVGYFLPKTGQQMPFHFRRGNEEIEVSGRYTVAANESTTYLAAARAGLGVIQAPLFMVREDLRNGTMVPVLPDWQVEPMPIYLVYPPNRHLSSRLRVFADWVVKVMAQSQNGE,not failed
16,MRAFYSTTEEISALFAKQQEQLKTMQRTLEDEDNCDNTSLDIDLNPINRSPNRANTQGDKRATSHLNFAARASSSTSGQRSTRNEVVDTSCEDADATQKHDCEIMSQEGQNTQEAEYPSSDKVAKGGFGSDIEGIGTAPTSGTDPVGTEQVNETQSPGNDYERNDHLRKSIILAGDTMQIDCETQVHESVQIEGAVLLLRNPNDRRDTQDIEGVGTIGTSDLLASEVAGSWANSTNPSVHGENETERSREDEESQTQKIKEVTIVQDSAGQIGESQTKPTSPGVLVTNKDDAERGVINEPVGITDQGKIKHGTRSDSETESCSDSDDDHEKEKHNPVSDSDTEGSDMNDDKGSLSSDPDTERSHEVDGDQKKQVDTMDEDDKAT,failed
17,MRAGDGKIRVPADLDAVTATGEEDHSEIDGAAVDRIWRAARHWYRAGMHPAIQLCIRHHGRVVLNRAIGHGWGNAPTDEADAEKIPVTTDTPFCVYSAAKAITATVVHMLVERGHFALDDRVCEYLPSYTSHGKHRTTIRHVLTHSAGVPFPTGPRPDVRRADDHEYAVERLGELRPLYRPGLVHIYHALTWGPLMREIVYAATGKEIREILATEILDPLGFRWTNFGVAERDVPLVAPSHATGRQLPPVIAAVFRKAIGGTVHEIIPYTNTPFFLSTILPSSNTVSTANELSRFMEILRRGGELDGVRVLSPETLRGAVTECRRLRPDFATGLMPLRWGTGFMLGSAKYGPFGRNAPAAFGHLGLVNIAVWADPERALSGGLISSGKPGRDPEAGRYGALLNAITAEIPRASSG,failed
18,MRAHGRRVSKRQPDSPGRLRGAFGSRLHLSPLTRLPARPIWRPRAGCAVPLAGPGCDPAGFMLKSPSFPFSAPAMLRHLPMTYCAIDFGTSNSAVALPDGDGMRLAPVEGDHLTLPTAIFFNNDEQTVEYGRAALASYIDGFDGRLMRSMKSILGSPLAETTTDLGDGSAMAYTEIIARFLTHLKRKAEARAGAPIGRAVLGRPVFFVDEDPRADRLAQDQLEAAARSVGFTDVHFQYEPIAAAFDYESRQQAERLVLVADIGGGTSDFSLVRVGPERMARLERKDDVLAHHGVHVAGTDYDRRVELAAILPAFGYRALDPEGRELPNRIYFDLATWHLINTVYTPKRLGELKLMKHLYQDGRQHDRLMSVVEQRLGHALMARAEEAKIGVAAGGETMIDLNDVEEDLQIAFDAERLVEASVDDTARIVDAARETVRLAGVAPRDLGALYFTGGSTGLAFLSGALAGAFPDAQPVFGDRLASVATGLGIHAQRLFG,failed
19,MRAQMKQYNCHEGALPFTKSYLLRPLFNAFLMSPKPFHTTEACIGCKKCEKVCPVGNITVTDRPVWGGNCTQCLACYHVCPVHAVEYLEHHHHHH,failed
